Laboratory results as given in paper PMC7160140, “Allosteric regulation accompanied by oligomeric state changes of Trypanosoma brucei GMP reductase through cystathionine-β-synthase domain” (Nature Communications, 2020).
Where two headings read alike, the source gives them in different places. One block for each molecule: values may come before it.

Legend:
[1] = target: Trypanosoma brucei guanosine 5'-monophosphate reductase, wild type (Trypanosoma brucei (ILTat 1.4)); assay: SEC-SAXS; with 10 mM GTP; 4 or 12 mg/mL protein in 50 mM Tris-HCl pH 7.8, 0.5 M KCl, 3 mM EDTA, 1 mM DTT; 20 °C; fractions fitted by OLIGOMER
[2] = target: Trypanosoma brucei guanosine 5'-monophosphate reductase, wild type (Trypanosoma brucei (ILTat 1.4)); assay: SEC-SAXS; no ligand; 4 or 12 mg/mL protein in 50 mM Tris-HCl pH 7.8, 0.5 M KCl, 3 mM EDTA, 1 mM DTT; Shodex KW403-4F; 20 °C; mass from volume of correlation, fractions of tetramer and octamers fitted by OLIGOMER
[3] = target: Trypanosoma brucei guanosine 5'-monophosphate reductase, wild type (Trypanosoma brucei (ILTat 1.4)); assay: SEC-SAXS; with 10 mM ATP; 4 or 12 mg/mL protein in 50 mM Tris-HCl pH 7.8, 0.5 M KCl, 3 mM EDTA, 1 mM DTT; 20 °C; fractions fitted by OLIGOMER; octamer to tetramers
[4] = target: Trypanosoma brucei guanosine 5'-monophosphate reductase, wild type (Trypanosoma brucei (ILTat 1.4)); assay: crystal structure; wild-type TbGMPR co-crystallised with up to 1 mM GTP (TbGMPR/GTP), 2.50 Å; 20 °C
[5] = target: Trypanosoma brucei guanosine 5'-monophosphate reductase, wild type (Trypanosoma brucei (ILTat 1.4)); assay: SEC-SAXS; with 10 mM GMP; 4 or 12 mg/mL protein in 50 mM Tris-HCl pH 7.8, 0.5 M KCl, 3 mM EDTA, 1 mM DTT; 20 °C; fractions fitted by OLIGOMER
[6] = target: TbGMPR∆CBS (Trypanosoma brucei GMP reductase lacking the CBS domain) (Trypanosoma brucei (ILTat 1.4)); assay: SEC-SAXS
[7] = target: T1, TbGMPR (guanosine 5′-monophosphate reductase) (Trypanosoma brucei, UniProt Q57ZS7, W115R); assay: tryptophan fluorescence quenching (no Kd obtained); type: binding
T1 construct: gene Tb05.1P6.110; full-length, C-terminal histidine-tag

[8] = target: T2, TbGMPR (guanosine 5′-monophosphate reductase) (Trypanosoma brucei, UniProt Q57ZS7); assay: co-crystal structure at […] Å; activation of purified enzyme (EC50); type: biochemical; design: gene Tb05.1P6.110; wild-type, C-terminal histidine-tag
T2 sequence (Q57ZS7 1-491): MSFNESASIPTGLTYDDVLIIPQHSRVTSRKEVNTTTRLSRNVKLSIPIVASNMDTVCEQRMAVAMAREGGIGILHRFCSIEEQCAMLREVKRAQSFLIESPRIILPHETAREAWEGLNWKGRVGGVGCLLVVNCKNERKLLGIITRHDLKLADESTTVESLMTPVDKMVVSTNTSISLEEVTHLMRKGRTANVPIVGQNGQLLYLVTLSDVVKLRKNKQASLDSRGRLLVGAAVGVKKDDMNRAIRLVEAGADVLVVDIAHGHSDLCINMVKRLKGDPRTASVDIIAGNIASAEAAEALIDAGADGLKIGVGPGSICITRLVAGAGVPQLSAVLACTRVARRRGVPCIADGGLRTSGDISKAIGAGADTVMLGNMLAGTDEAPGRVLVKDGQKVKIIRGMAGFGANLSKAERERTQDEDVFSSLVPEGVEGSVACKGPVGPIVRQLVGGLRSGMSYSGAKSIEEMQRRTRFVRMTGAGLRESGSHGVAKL

[9] = target: T1, TbGMPR (guanosine 5′-monophosphate reductase); assay: tryptophan fluorescence quenching; type: binding
[10] = target: TbGMPR C318A (inactive mutant of Trypanosoma brucei GMP reductase) (Trypanosoma brucei (ILTat 1.4)); assay: crystal structure; TbGMPR C318A without ligand (C318A apo), 2.80 Å; sitting drop, 4 °C; oligomer from crystal packing by PISA
[11] = target: TbGMPR C318A (inactive mutant of Trypanosoma brucei GMP reductase) (Trypanosoma brucei (ILTat 1.4)); assay: crystal structure; TbGMPR C318A co-crystallised with up to 3 mM GMP (C318A/GMP), 1.90 Å; 4 °C
[12] = target: T2, TbGMPR (guanosine 5′-monophosphate reductase); assay: biochemical; design: gene Tb05.1P6.110
[13] = substrate: Nc1nc2c(ncn2[C@@H]2O[C@H](COP(=O)(O)O)[C@@H](O)[C@H]2O)c(=O)[nH]1; assay: purified protein; type: biochemical, Trypanosoma brucei; settings: NADPH active site; positive cooperativity via CBS domain

Octamer, relaxed (%) [1]: 0% | Octamer, twisted (%) [1]: 100% | Tetramer (%) [1]: 0% | Octamer, relaxed (%) [2]: 53.2% | Octamer, twisted (%) [2]: 46.8% | Tetramer (%) [2]: 0% | stoichiometry N [2]: 8 | Octamer, relaxed (%) [3]: 28% | Octamer, twisted (%) [3]: 11.2% | Tetramer (%) [3]: 60.8% | stoichiometry N [4]: 8 | Octamer, relaxed (%) [5]: 0% | Octamer, twisted (%) [5]: 97.8% | Tetramer (%) [5]: 2.2%
Molecule: Trypanosoma brucei guanosine 5'-monophosphate reductase, wild type (enzyme)

Molecule: TbGMPR∆CBS (Trypanosoma brucei GMP reductase lacking the CBS domain) (enzyme)
stoichiometry N [6]: 4

Molecule: Nc1nc2c(ncn2[C@@H]2O[C@H](COP(=O)(O)O)[C@@H](O)[C@H]2O)c(=O)[nH]1 [GMP]
tryptophan fluorescence quenching (no Kd obtained) [7]: blue-shifting of the emission spectra of the protein with either GTP or GMP, but not with ATP

Molecule: Nc1nc2c(ncn2[C@@H]2O[C@H](COP(=O)(O)OP(=O)(O)OP(=O)(O)O)[C@@H](O)[C@H]2O)c(=O)[nH]1 [GTP]
EC50 [8]: 4.8 µM | Kd ([9]; read-out: Kd): 6.75 ± 0.58 µM

Molecule: TbGMPR C318A (inactive mutant of Trypanosoma brucei GMP reductase) (enzyme)
stoichiometry N [10]: 8 | stoichiometry N [11]: 8

Molecule: Nc1ncnc2c1ncn2[C@@H]1O[C@H](COP(=O)(O)OP(=O)(O)OP(=O)(O)O)[C@@H](O)[C@H]1O [ATP]
EC50 [12]: 160 µM | Kd [9]: 194 ± 45 µM

B1: TbGMPR (guanosine 5′-monophosphate reductase) (Trypanosoma brucei brucei TREU927) (protein)
chain: MSFNESASIPTGLTYDDVLIIPQHSRVTSRKEVNTTTRLSRNVKLSIPIVASNMDTVCEQRMAVAMAREGGIGILHRFCSIEEQCAMLREVKRAQSFLIESPRIILPHETAREAWEGLNWKGRVGGVGCLLVVNCKNERKLLGIITRHDLKLADESTTVESLMTPVDKMVVSTNTSISLEEVTHLMRKGRTANVPIVGQNGQLLYLVTLSDVVKLRKNKQASLDSRGRLLVGAAVGVKKDDMNRAIRLVEAGADVLVVDIAHGHSDLCINMVKRLKGDPRTASVDIIAGNIASAEAAEALIDAGADGLKIGVGPGSICITRLVAGAGVPQLSAVLACTRVARRRGVPCIADGGLRTSGDISKAIGAGADTVMLGNMLAGTDEAPGRVLVKDGQKVKIIRGMAGFGANLSKAERERTQDEDVFSSLVPEGVEGSVACKGPVGPIVRQLVGGLRSGMSYSGAKSIEEMQRRTRFVRMTGAGLRESGSHGVAKL
notes: wild-type, C-terminal histidine-tag
K0.5 [13]: 184 ± 3 µM | kcat [13]: 0.2783 ± 0.0025 s⁻¹ | kcat/Km [13]: 1520 M⁻¹ s⁻¹
